The numbers were not newly measured in PMC10243098, which cites them from elsewhere.

In the data set the target is histone H4 N-terminal 20-mer peptide-CoA bisubstrate inhibitor 1-20 (Homo sapiens) (UniProt P62805).

Sequence of HAT1 (O14929 2-419): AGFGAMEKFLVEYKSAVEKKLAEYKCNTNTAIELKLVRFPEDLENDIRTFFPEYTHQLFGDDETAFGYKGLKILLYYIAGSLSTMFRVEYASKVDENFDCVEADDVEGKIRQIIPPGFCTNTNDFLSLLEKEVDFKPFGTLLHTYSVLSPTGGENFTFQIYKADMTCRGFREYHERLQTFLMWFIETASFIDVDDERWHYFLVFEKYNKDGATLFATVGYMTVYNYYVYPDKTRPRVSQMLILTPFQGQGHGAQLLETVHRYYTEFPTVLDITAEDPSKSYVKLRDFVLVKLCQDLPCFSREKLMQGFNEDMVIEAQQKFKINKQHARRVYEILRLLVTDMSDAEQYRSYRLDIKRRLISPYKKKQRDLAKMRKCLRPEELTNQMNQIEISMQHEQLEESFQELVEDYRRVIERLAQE

Turning to HAT1 (from UniProt O14929), the Ki is 1 nM.
